Experimental data reported in article PMC2077811 (The Journal of biological chemistry, 2006).

Biological target: T1, hRad51 (human, UniProt Q06609 1-339)
T1 sequence (looked up): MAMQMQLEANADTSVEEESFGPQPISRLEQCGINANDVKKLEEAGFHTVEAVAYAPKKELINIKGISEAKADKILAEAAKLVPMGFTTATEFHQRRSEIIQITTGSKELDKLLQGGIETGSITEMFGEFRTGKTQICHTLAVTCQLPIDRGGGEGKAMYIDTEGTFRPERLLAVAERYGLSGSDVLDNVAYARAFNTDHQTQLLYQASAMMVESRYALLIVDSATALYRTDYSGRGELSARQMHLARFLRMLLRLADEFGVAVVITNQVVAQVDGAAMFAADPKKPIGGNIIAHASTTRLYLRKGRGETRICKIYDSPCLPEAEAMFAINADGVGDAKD
Test: pull-down

binding result: binds
B1: GST-BRC3/4 (domain or fragment, human, UniProt P51587 1409-1596, looked up)
chain: LTATKTEQNIKDFETSDTFFQTASGKNISVAKESFNKIVNFFDQKPEELHNFSLNSELHSDIRKNKMDILSYEETDIVKHKILKESVPVGTGNQLVTFQGQPERDEKIKEPTLLGFHTASGKKVKIAKESLDKVKNLFDEKEQGTSEITSFSHQWAKTLKYREACKDLELACETIEITAAPKCKEMQN
